For this experiment, the target named is Monomeric human ACE2 (19-615), Fc tag removed by thrombin (human, UniProt Q9BYF1 19-615). As to the kind of experiment: BLI. (In BLI a coated tip is dipped into the sample, and binding shifts an interference pattern.)
Sequence of Monomeric human ACE2 (19-615), Fc tag removed by thrombin (Q9BYF1 19-615): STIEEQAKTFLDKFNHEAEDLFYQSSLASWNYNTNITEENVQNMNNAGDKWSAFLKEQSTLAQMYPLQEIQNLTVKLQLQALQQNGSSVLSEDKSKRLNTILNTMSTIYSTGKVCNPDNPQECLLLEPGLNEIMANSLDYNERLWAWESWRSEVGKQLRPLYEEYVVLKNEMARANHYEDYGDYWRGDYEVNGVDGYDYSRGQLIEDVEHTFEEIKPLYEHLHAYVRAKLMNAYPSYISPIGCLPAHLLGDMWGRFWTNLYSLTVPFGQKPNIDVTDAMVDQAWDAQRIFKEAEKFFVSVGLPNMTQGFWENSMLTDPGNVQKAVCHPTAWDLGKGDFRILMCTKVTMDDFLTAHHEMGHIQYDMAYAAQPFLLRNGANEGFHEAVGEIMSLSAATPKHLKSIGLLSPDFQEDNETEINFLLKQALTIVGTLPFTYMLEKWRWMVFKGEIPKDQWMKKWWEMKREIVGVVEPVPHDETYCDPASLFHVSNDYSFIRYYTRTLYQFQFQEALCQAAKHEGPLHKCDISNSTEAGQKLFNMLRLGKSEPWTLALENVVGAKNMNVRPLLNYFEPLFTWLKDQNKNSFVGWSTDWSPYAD

B1: SARS-CoV-1 RBD (306-575), mammalian-expressed, purified (domain or fragment)
chain: not shown
What is called Kd is the concentration at which binding is half-saturated. Turning to B1, the dissociation constant Kd was 575 nM.

(Values after publication PMC7418704 (2020).)
